Here are results for three molecules from patent US20040171117A1 (GlaxoSmithKline, published 2004).

For test [1], the target named is T1, soluble human RANKL protein (shRANKL) (human, UniProt O14788 140-317, limits assumed, biotinylated at a 20:1 molar ratio of NHS-biotin to protein (competition ELISA only)).
T1 sequence (looked up): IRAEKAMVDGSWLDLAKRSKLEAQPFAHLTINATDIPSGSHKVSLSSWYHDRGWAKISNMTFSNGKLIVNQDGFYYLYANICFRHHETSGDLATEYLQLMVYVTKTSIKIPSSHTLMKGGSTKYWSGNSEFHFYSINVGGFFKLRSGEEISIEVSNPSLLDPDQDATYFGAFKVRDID
Description: cell-based or functional assay.

In test [2] the target is T1, soluble human RANKL protein (shRANKL). Description: competition ELISA: soluble RANK-Fc inhibiting biotinylated shRANKL binding to coated RANK-Fc. From the text:
(§1) A. A competition ELISA was established using a human RANK-Fc fusion protein coated on plastic and a biotinylated soluble human RANKL protein for detection in solution. The RANK-Fc and RANKL proteins were produced in CHO cells and Pichia pastoris, respectively, and purified to >90% homogeneity. The shRANKL (soluble, human RANKL) protein was biotinylated at a 20:1 molar ratio of NHS-biotin to protein (Pierce, Rockford, Ill.) according to th manufacturer's specifications. 96-well ELISA plates were coated overnight at 4° C. with 50 ng/well ([…]) RANK-Fc in pH 9.6 carbonate-bicarbonate buffer. Plates were washed in pH 7.4 Tris-Saline buffer containing 0.1% Tween 20 and blocked for 2 h at RT in 1% BSA/PBS. Competitor proteins (RANK-Fc; death receptor 5 (DR5)-Fc; OPG-Fc; RANKL MAb 19H22) were diluted in 0.01% Tween 20/PBS and added to wells prior to the addition of biotinylated shRANKL (0.43 nM) and the combined samples were incubated for 2 hrs at room temperature. The amount of biotinylated shRANKL bound to coated RANK-Fc (+/−competitor) was measured using alkaline phosphatase conjugated streptavidin. The substrate for signal detection was 105 PNPP (Pierce Inc., Rockford, Ill.) and absorbance measured at 405 nm using a Spectra Max 340 plate reader.

Test [3] has the same target. Description: competition ELISA: inhibition of biotinylated shRANKL binding to coated RANK-Fc.
Excerpt: as §1
In general terms: An ELISA detects its analyte on a solid surface through an enzyme-linked reagent.

Test [4] shares this target. The experiment in a line: not stated there (paragraph 33 defines high affinity as determined by optical biosensor analysis).

A word on the IC50: it is the concentration that gives 50% inhibition. By Kd is commonly meant a measure of binding affinity in units of concentration.

B1: human RANK-Fc fusion protein (Fc fusion, UniProt Q9Y6Q6 30-212, looked up)
chain: IAPPCTSEKHYEHLGRCCNKCEPGKYMSSKCTTTSDSVCLPCGPDEYLDSWNEEDKCLLHKVCDTGKALVAVVAGNSTTPRRCACTAGYHWSQDCECCRRNTECAPGLGAQHPLQLNKDTVCKPCLAGYFSDAFSSTDKCRPWTNCTFLGKRVEHHGTEKSDAVCSSSLPARKPPNEPHVYLP
notes: Produced in CHO cells; not shown: Fc part
With B1, in test [1], the “IC50, human monocyte osteoclastogenesis (formation of multinuclear cells) with 50 ng/ml human soluble RANKL plus M-CSF” value was approximately 0.5 µg/mL. Further, the IC50 in test [2] is approximately 6 nM.

B2: OPG-Fc (Fc fusion, UniProt O00300 22-201, looked up)
chain: ETFPPKYLHYDEETSHQLLCDKCPPGTYLKQHCTAKWKTVCAPCPDHYYTDSWHTSDECLYCSPVCKELQYVKQECNRTHNRVCECKEGRYLEIEFCLKHRSCPPGFGVVQAGTPERNTVCKRCPDGFFSNETSSKAPCRKHTNCSVFGLLLTQKGNATHDNICSGNSESTQKCGIDVTL
notes: Construct not described; also called osteoprotegerin-Fc; not shown: Fc part; not described
For the molecule B2, the IC50 in test [3] is approximately 0.5 nM.

B3: RANKL MAb 19H22 (mouse monoclonal antibody 19H22) (antibody, IgG2b, V domains shown)
VH: EIQLQQSGAELVNPGASVKLSCTASGFNIKGTYMHWVKQRPEQGLEWIGRIDPANGNTKYDPKFQGKATITTDTSPNTAYLQLSSLTSEDTAVYYCTTQFHYYGYGGVYWGQGTLVTVSA
VL: QIVLTQSPAIMSASPGEKVTMTCSASSSVSYMYWYQQKPGSSPRLLIYDTSNLASGVPVRFSGSGSGTSYSLTISRMEAEDAATYYCQQWSNFPLTFGAGTKLELKR
notes: also called 19H22 MAb; murine RANKL MAb 19H22
Take B3: in test [1], the “IC50, human monocyte osteoclastogenesis (formation of multinuclear cells) with 50 ng/ml human soluble RANKL plus M-CSF” value was approximately 4 µg/mL. Further, in test [4], the Kd was approximately 0.1 nM. Further, the IC50 in test [3] is approximately 2 nM.
